Measurements as given in the supplement of paper PMC11502859.

Tested on: HEK293T
Assay: median enrichment of reporter reads in eGFP-reduced (low/intermediate) vs eGFP-high sorted cells (eGFP-extension fusion abundance) (ratio); higher = stronger loss of eGFP-fusion protein abundance (more destabilising extension)
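Note: lentiviral eGFP-IRES-mCherry reporter pool sorted by FACS 96 h post-transduction, gated on mCherry-high cells, Illumina read counts normalized per million, median across four biological replicates.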

| Substance | median enrichment |
| --- | --- |
| WERPGGGAHWEGQDSVPALILPCPDVSCFAQRSFLSTPLIPRLVPREGWRPGHGPSRRGREGRRGRGRIEPIPAGEGEPSVHL [ASIC4] | 1.34 |
| WETA [FAXDC2] | 0.459 |
| WFC [HNRNPF] | 2.6 |
| WFFCFNKQQ [TMEM31] | 6.9 |
| WFIFKGLCVTLTFPVVTCDCFVFVEEYCFYFEKRVFFLSMGLQGWCTTGPSMYSCIDFFT [CD109] | 0.738 |
| WFSPVICSINGLIINVSLRHDKHFNTQ [DNAAF1] | 13.3 |
| WFST [SEMA3D] | 2.02 |
| WFYILTS [CLHC1] | 5.45 |
| WGAAYQSLGSHLLRC [C11orf91] | 5.76 |
| WGAPQEGPVDLRRLHKKLMDHWSVPMGSIISSTLKMSKVCSFQTASPGSLGNAGKSKRISLALIT [ACSM5] | 17.8 |
| WGATSFSTTMLLHFPTPTRPPSSPPTPFSHSHPHHRSLDCWEWKPGGVMAQVL [RAMP2] | 8.95 |
| WGC [PIGN] | 0.651 |
| WGCSGNSHSAPIRAPCRGPSVVSD [TBC1D14] | 2.19 |
| WGEKPQKGKLQTSWETCAKDFAD [CXCL14] | 0.277 |
| WGEPQTLRES [C7orf61] | 0.458 |
| WGFRSAT [KIF15] | 1.06 |
| WGGLGCQCCRDPGCPGLWGRTGSPHPPTPAKGGASPESPPVRPSEPTSHPPSSQGVRAPDGPGRHPGGPATAGEGT [TMEM184A] | 2.58 |
| WGGLN [OR3A1] | 1.04 |
| WGGPNLDSFPALGHRRPGSSARQAWARRAPGRALSAAGARPRTSAGTRESLLGRSVNKPFFLLFFKNCFSH [DUOXA2] | 5.58 |
| WGGVGPGRAGVCWHRQPPLWALGGPLKGSPTRGPDESFLSGVGSQRGSPPAAWGRAWPGRVIQRVCQPLTGSPSVAATRSTEL [FAM53B] | 5.84 |
| WGHIQDNYTFAQPGIQMKVKMLEELVSRIDEQVHRHLDQHEVRYLQFAFRWMNNLLMREVPLRCTIRLWDTYQSEPDGFSHFH [TBC1D22A] | 11.6 |
| WGHQSPQWTDAFDGQDEGQGHWSEGVDKTAAI [TBC1D21] | 0.0629 |

| Substance | median enrichment |
| --- | --- |
| WGHRSEMRGLECGWAPGAMGGCGAGEIKSELLLPGVPTSSSGQSVHSQPDR [BCL2] | 5.52 |
| WGLRPHAPSHAVHPFSQVPNGPGSQDPGPSQNLCPPCP [SARDH] | 9.03 |
| WGMFVPGKAGGEPLQHLYIQEACREELVCWPQEEWELQTRSSDSLWPESNLVSPPASLF [FGF1] | 7.24 |
| WGNKRKLSPESATSAPSIFSINALYQPQSSLFKLTPC [ZNF474] | 8.63 |
| WGPAWHPVTPPQCLSWP [CSHL1] | 7.99 |
| WGPDSELEGGEIFKEKRGKWEGCKRGE [SOX2] | 29.7 |
| WGPGAFPRSSPSSI [RNASEK] | 0.405 |
| WGPGRGPGAVGT [INSYN1] | 5.06 |
| WGPGSLHASALAPAGSKHRACPPHPEDLRAMPVPPHAGGCLGHLPAH [RHPN1] | 3.51 |
| WGPPRARRTGTELSRGRSPRQAQLV [CDS2] | 11.7 |
| WGPVHAGGLRDPHNPQTQSPRALPKPLAWLQSRLRAGATYPCAGTCSLCSVLITPP [RUSC2] | 7.23 |
| WGQCLPAPPLASSSAPRVPSVDPIRPAMASYSKMV [ACO2] | 0.96 |
| WGRDSVPLAVLPSLLVCQASPPTTPHQATPAASAFLGAERQPRPPVPSPPSHHRSSAPGRTVWPLPVPAMGSGWTPWAPPIAK [CAPN1] | 7.5 |
| WGRRCGAVNFRPQRSQSMRGGGGGRGRRAKGGGAGASNPRQ [KISS1] | 15.8 |
| WGSAQISVVRKPVPLGFSPHTTACRTLEWTQSSH [CA6] | 7.98 |
| WGSCSGGRV [ZNF330] | 0.598 |
| WGSEPRPSGFTCLVKAFVMISLN [KRTAP5-10] | 10.1 |
| WGSGFVSAAAYPCPMCPPLPVLRASGMVQALRKVRVAVWEPLCLAPGYPGPGNLRAGERWGGRHAEVLLVTGLPSLTCTYLHP [SLC36A1] | 4.72 |
| WGSVQGLSH [CST5] | 0.711 |
| WGTKPRRIPPQ [CA10] | 0.682 |
| WGWGWTNNQARAEGFMERPLGDPR [S1PR2] | 3.36 |
